In article PMC4472604:

What was measured:
Assay in all cases: radioligand
Conditions in all cases: modification not given
[1] = biological target: MOR (Mus musculus), P42866
[2] = biological target: T1, 6TM/E11 6TM/E11 splice variant (Mus musculus), P42866
T1 chain: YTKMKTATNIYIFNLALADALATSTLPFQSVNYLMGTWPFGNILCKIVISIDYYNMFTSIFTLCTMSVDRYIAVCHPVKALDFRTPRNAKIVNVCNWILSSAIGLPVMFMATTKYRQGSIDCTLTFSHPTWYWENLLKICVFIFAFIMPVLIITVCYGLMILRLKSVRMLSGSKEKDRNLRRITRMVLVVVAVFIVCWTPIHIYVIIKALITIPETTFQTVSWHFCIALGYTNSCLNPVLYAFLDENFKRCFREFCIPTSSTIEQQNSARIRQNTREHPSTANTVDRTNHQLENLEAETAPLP

[3] = biological target: T2, KOR (Mus musculus), P33534
T2 chain: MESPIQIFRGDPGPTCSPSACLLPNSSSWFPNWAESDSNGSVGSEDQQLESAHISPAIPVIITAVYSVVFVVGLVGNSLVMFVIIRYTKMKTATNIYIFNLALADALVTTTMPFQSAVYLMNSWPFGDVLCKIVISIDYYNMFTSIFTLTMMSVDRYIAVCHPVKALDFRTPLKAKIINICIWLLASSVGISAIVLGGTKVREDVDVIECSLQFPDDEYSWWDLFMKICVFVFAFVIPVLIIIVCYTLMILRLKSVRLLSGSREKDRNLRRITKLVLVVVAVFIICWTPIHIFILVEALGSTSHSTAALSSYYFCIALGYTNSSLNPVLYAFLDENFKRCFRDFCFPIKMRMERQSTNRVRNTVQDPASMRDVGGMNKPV

[4] = biological target: T3, DOR (Mus musculus), P32300
T3 chain: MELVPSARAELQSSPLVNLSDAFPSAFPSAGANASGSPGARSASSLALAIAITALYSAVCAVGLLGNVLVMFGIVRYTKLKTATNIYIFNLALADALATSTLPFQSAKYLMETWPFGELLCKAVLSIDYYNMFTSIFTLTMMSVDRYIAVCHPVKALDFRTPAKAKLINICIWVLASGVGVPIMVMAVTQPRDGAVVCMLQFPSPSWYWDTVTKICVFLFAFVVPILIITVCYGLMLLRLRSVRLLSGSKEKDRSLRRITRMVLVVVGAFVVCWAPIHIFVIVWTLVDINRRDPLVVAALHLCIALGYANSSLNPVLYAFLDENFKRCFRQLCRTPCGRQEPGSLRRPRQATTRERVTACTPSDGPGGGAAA

Sequence of MOR (Mus musculus), P42866 (P42866 whole entry, canonical isoform): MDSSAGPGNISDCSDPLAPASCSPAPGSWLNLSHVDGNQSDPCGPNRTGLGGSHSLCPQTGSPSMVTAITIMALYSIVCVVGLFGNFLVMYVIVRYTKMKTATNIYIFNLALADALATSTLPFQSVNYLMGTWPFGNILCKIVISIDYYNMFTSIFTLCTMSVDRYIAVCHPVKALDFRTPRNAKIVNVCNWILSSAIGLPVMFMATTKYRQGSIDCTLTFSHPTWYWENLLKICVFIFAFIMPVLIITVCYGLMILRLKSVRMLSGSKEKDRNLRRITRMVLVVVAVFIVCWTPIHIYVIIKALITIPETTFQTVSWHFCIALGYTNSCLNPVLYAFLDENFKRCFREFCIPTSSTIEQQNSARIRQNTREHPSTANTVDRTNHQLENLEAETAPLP

Binder	Ki [1] [µM]	Ki [2] [µM]	Ki [3] [µM]	Kd [4] [µM]
YAFEVVG [[D-Ala2]deltorphin II]	> 1	> 1	> 1	
YAFEIIG [[125I]-3 (125I-GATE3-8)]				0.00011
YAFEIIG [peptide 1]	> 1	> 1	> 1	
